What was measured:
Conditions in all cases: remark: other sources report otherwise
[1] = target: NY_s127H1-t2-cl18long (influenza A virus H1N1 A/New York/629/95)
[2] = target: Tex_s127H1-t2-cl18long (influenza A virus H1N1 A/Texas/UR06-0526/07)
[3] = target: 112F3 (influenza A H1N1 A/Brisbane/59/2007); test: ELISA, coated CR6261, P. pastoris medium
[4] = target: 115A1 (influenza A H1N1 A/Brisbane/59/2007); test: ELISA, coated CR6261, P. pastoris medium
[5] = target: 123G2 (influenza A H1N1 A/Brisbane/59/2007); test: ELISA, coated CR6261, P. pastoris medium
[6] = target: 126C3 (influenza A H1N1 A/Brisbane/59/2007); test: ELISA, coated CR6261, P. pastoris medium
[7] = target: 127H1 (influenza A H1N1 A/Brisbane/59/2007); test: ELISA, coated CR6261, P. pastoris medium
[8] = target: 129C2 (influenza A H1N1 A/Brisbane/59/2007); test: ELISA, coated CR6261, P. pastoris medium
[9] = target: 131D5 (influenza A H1N1 A/Brisbane/59/2007); test: ELISA, coated CR6261, P. pastoris medium
[10] = target: 137C5 (influenza A H1N1 A/Brisbane/59/2007); test: ELISA, coated CR6261, P. pastoris medium
[11] = target: 138F8 (influenza A H1N1 A/Brisbane/59/2007); test: ELISA, coated CR6261, P. pastoris medium
[12] = target: 148D5 (influenza A H1N1 A/Brisbane/59/2007); test: ELISA, coated CR6261, P. pastoris medium
[13] = target: 171E5 (influenza A H1N1 A/Brisbane/59/2007); test: ELISA, coated CR6261, P. pastoris medium
[14] = target: 171F6 (influenza A H1N1 A/Brisbane/59/2007); test: ELISA, coated CR6261, P. pastoris medium
[15] = target: 176A5 (influenza A H1N1 A/Brisbane/59/2007); test: ELISA, coated CR6261, P. pastoris medium
[16] = target: 182C6 (influenza A H1N1 A/Brisbane/59/2007); test: ELISA, coated CR6261, P. pastoris medium
[17] = target: 182D3 (influenza A H1N1 A/Brisbane/59/2007); test: ELISA, coated CR6261, P. pastoris medium
[18] = target: 182H2 (influenza A H1N1 A/Brisbane/59/2007); test: ELISA, coated CR6261, P. pastoris medium
[19] = target: 185G7 (influenza A H1N1 A/Brisbane/59/2007); test: ELISA, coated CR6261, P. pastoris medium
[20] = target: 187H10 (influenza A H1N1 A/Brisbane/59/2007); test: ELISA, coated CR6261, P. pastoris medium
[21] = target: 188C8 (influenza A H1N1 A/Brisbane/59/2007); test: ELISA, coated CR6261, P. pastoris medium
[22] = target: 188F4 (influenza A H1N1 A/Brisbane/59/2007); test: ELISA, coated CR6261, P. pastoris medium
[23] = target: 188G10 (influenza A H1N1 A/Brisbane/59/2007); test: ELISA, coated CR6261, P. pastoris medium
[24] = target: 191C8 (influenza A H1N1 A/Brisbane/59/2007); test: ELISA, coated CR6261, P. pastoris medium
[25] = target: 191D5 (influenza A H1N1 A/Brisbane/59/2007); test: ELISA, coated CR6261, P. pastoris medium
[26] = target: 193B6 (influenza A H1N1 A/Brisbane/59/2007); test: ELISA, coated CR6261, P. pastoris medium
[27] = target: 199F3 (influenza A H1N1 A/Brisbane/59/2007); test: ELISA, coated CR6261, P. pastoris medium
[28] = target: 204C5 (influenza A H1N1 A/Brisbane/59/2007); test: ELISA, coated CR6261, P. pastoris medium
[29] = target: 230G9 (influenza A H1N1 A/Brisbane/59/2007); test: ELISA, coated CR6261, P. pastoris medium
[30] = target: 239D2 (influenza A H1N1 A/Brisbane/59/2007); test: ELISA, coated CR6261, P. pastoris medium
[31] = target: 245C9 (influenza A H1N1 A/Brisbane/59/2007); test: ELISA, coated CR6261, P. pastoris medium
[32] = target: 264G4 (influenza A H1N1 A/Brisbane/59/2007); test: ELISA, coated CR6261, P. pastoris medium
[33] = target: 271F10 (influenza A H1N1 A/Brisbane/59/2007); test: ELISA, coated CR6261, P. pastoris medium
[34] = target: 272H2 (influenza A H1N1 A/Brisbane/59/2007); test: ELISA, coated CR6261, P. pastoris medium
[35] = target: 275D4 (influenza A H1N1 A/Brisbane/59/2007); test: ELISA, coated CR6261, P. pastoris medium

B1: CR6261 (antibody, V domains shown)
VH: EVQLVESGAEVKKPGSSVKVSCKASGGPFRSYAISWVRQAPGQGPEWMGGIIPIFGTTKYAPKFQGRVTITADDFAGTVYMELSSLRSEDTAMYYCAKHMGYQVRETMDVWGKGTTVTVSS
VL: QSVLTQPPSVSAAPGQKVTISCSGSSSNIGNDYVSWYQQLPGTAPKLLIYDNNKRPSGIPDRFSGSKSGTSATLGITGLQTGDEANYYCATWDRRPTAYVVFGGGTKLTVLG
Binder B1 has an EC50 [1] of 0.455 µg/mL, an EC50 [2] of 0.369 µg/mL and a CR6261 binding signal [3] of 450000. For the same binder, the CR6261 binding signal [4] was 1.18e+06, the CR6261 binding signal [5] was 499000 and the CR6261 binding signal [6] was 220000. It also gave a CR6261 binding signal [7] of 800000, a CR6261 binding signal [8] of 199000 and a CR6261 binding signal [9] of 345000. For the same binder, the CR6261 binding signal [10] was 296000, the CR6261 binding signal [11] was 348000 and the CR6261 binding signal [12] was 329000. The CR6261 binding signal [13] was 880000, the CR6261 binding signal [14] was 140000 and the CR6261 binding signal [15] was 193000. It also gave a CR6261 binding signal [16] of 92900, a CR6261 binding signal [17] of 143000 and a CR6261 binding signal [18] of 110000. The CR6261 binding signal [19] was 506000, the CR6261 binding signal [20] was 299000 and the CR6261 binding signal [21] was 113000. For the same binder, the CR6261 binding signal [22] was 287000, the CR6261 binding signal [23] was 143000 and the CR6261 binding signal [24] was 309000. The CR6261 binding signal [25] was 124000, the CR6261 binding signal [26] was 207000 and the CR6261 binding signal [27] was 329000. For the same binder, the CR6261 binding signal [28] was 833000, the CR6261 binding signal [29] was 855000 and the CR6261 binding signal [30] was 570000. For the same binder, the CR6261 binding signal [31] was 180000, the CR6261 binding signal [32] was 181000 and the CR6261 binding signal [33] was 315000. It also gave a CR6261 binding signal [34] of 263000 and a CR6261 binding signal [35] of 327000.
